Assay results: patent publication US20020009726A1 (LA JOLLA CANCER RESEARCH FOUNDATION, published 2002)

Columns and labels:
[1] = target: LexA fusion of Ha-Ras (V12) (UniProt P0A7C2 1-202; P01112 1-189, limits assumed); experiment: yeast two-hybrid, growth on histidine-deficient medium (HIS3 reporter)
Experimental: (§1) The 166 clones were cured of LexA/CD40-encoding plasmids by growing the cells in tryptophan-containing medium. […] The mated cells were selected for growth in medium lacking tryptophan and leucine to obtain cells that contained both a pACT-B cell clone and a LexA-fusion protein. Colonies were transferred to histidine-deficient plates or histidine-containing media with X-Gal. Colonies expressing β-gal activity were identified using a plate assay and a filter assay. The plate assay was performed on the X-Gal containing plates -12 hr after plating according to previous methods (see Chien et al., Proc. Natl. Acad. Sci., USA 88:9578-9582 (1991), which is incorporated herein by reference). The β-gal filter assay was performed after 1 hr culture as described previously (Sato et al., supra, 1994; Breeden and Nasmyth, Cold Spring Harbor Symp. Quant. biol. 50:643-650 (1985), which is incorporated herein by reference).

[2] = target: T1, LexA fusion of Bcl-2 (positions 83-218) (UniProt P0A7C2 1-202; P10415 83-218); experiment: as above
T1 construct: also called Bcl-2 (83-218)
Experimental: as §1

LexA fusion of Lamin-C = target: T2, LexA fusion of Lamin-C (UniProt P0A7C2 1-202; P02545 66-230); experiment: yeast two-hybrid, beta-galactosidase (lacZ reporter)
T2 sequence (looked up): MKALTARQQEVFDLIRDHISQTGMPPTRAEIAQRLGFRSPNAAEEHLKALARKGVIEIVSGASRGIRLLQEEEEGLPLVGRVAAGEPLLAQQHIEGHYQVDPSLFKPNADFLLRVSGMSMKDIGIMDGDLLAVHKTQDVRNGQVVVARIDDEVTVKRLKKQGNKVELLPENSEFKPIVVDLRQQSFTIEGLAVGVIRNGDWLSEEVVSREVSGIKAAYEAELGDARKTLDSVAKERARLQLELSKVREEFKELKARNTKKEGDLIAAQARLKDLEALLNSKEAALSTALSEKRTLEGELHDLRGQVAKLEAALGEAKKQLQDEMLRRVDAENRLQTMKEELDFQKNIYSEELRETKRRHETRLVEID
Experimental: as §1

Measured: binding result

B1: CAP-1 (pACT2229/GAL4 fusion) (other, not shown: small tags and cut ends)
chain: HDQMLSVHDIRLADMDLRFQVLETASYNGVLIWKIRDYKRRKQEAVMGKTLSLYSQPFYTGYFGYKMCARVYLNGDGMGKGTHLSLFFVIMRGEYDALLPWPFKQKVTLMLMDQGSSRRHLGDAFKPDPNSSSFKKPTGEMNIASGCPVFVAQTVLENGTYIKDDTIFIKVIVDTSDLPDP
notes: Yeast two-hybrid prey; also called pACT121; CD40 associated protein-1
no binding: [1] | [2] | LexA fusion of Lamin-C
